The values below come from patent publication US20160289340A1 (published 2016).

Where a chain is given by its changes, count along the chain named.

Assay [1] has as its target T1, BSA control protein (bovine, UniProt P02769 25-607).
T1 construct: Unconjugated BSA used as negative control coating next to SSEA-4-BSA glycoconjugate; also called bovine serum albumin
The assay can be described thus: phage ELISA, serially diluted phage on coated BSA. (An ELISA detects its analyte on a solid surface through an enzyme-linked reagent.)

For assay [2], the target named is T1, BSA control protein. The assay can be described thus: ELISA, serially diluted IgG on coated BSA, anti-human IgG-HRP.

T1 sequence (P02769 25-607 limits assumed): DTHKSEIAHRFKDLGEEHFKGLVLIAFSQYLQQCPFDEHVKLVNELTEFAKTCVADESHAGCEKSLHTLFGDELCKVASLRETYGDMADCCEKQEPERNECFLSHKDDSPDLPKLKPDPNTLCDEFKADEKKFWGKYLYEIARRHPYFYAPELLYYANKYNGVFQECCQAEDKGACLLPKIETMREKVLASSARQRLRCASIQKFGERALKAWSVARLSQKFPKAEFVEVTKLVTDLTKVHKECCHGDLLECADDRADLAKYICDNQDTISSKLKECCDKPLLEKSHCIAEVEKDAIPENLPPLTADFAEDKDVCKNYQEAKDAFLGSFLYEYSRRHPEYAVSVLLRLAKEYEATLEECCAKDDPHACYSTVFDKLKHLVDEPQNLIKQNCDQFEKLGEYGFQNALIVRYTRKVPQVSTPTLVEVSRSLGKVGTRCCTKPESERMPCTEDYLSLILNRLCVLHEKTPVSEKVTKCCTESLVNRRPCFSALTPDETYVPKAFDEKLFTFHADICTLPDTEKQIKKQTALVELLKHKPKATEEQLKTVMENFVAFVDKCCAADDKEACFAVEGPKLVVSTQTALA

B1: 3rd scFv phage clone of humanized MC48 variant (scFv)
scFv: QVQLQESGPGLVKPSETLSLTCTVSGFSLTSYGVSWIRQPPGKGLEWIGVIWGEGSTNYHSVLISRLTISKDNSKSQVFLKLNSLQTDDTATYYCAMTGTAYWGQGTLVTVSSGGGGSGGGGSGGGGSQIVLTQSPAIMSASPGEKVTMTCSASSSVSYMHWYQQKPGLAPRLLIYDTSKLSSGVPGRFSGSGSGTSYSLTISRLEAEDAATYYCHQWSSSPHTFGGGTKVEIKR
notes: also called 3rd humanized MC48 scFv phage; hMC48 (3rd)
As to B1, in assay [1], the binding result is given as “no binding”.

B2: 4th scFv phage clone of humanized MC48 variant (scFv)
scFv: QVQLKESGPGLVAPSQSLSITCTVSGFSLTSYGVSWIRQPPGKGLEWIGVIWGEGSTNYHSVLISRLTISKDNSKSQVFLKLNSLQTDDTATYYCAMTGTAYWGQGTLVTVSSGGGGSGGGGSGGGGSQIVLTQSPAIMSASPGEKVTMTCSASSSVSYMHWYQQKSGTSPKRWIYDTSKLSSGVPGRFSGSGSGTSYSLTISRLEAEDAATYYCHQWSSSPHTFGGGTKVEIKR
notes: also called 4th humanized MC48 scFv phage; hMC48 (4th)
In the case of B2, in assay [1], the binding result is on record as “no binding”.

B3: 3rd humanized MC41 IgG (antibody, V domains shown)
VH: QVQLKESGPGLVAPSKTLSLTCTVSGFSLSSQGVYWIRQPPGKGLEWIGAIWAGGSTNYNSALMSRLSISKDNSKSQVFLKMNSLQTDDTAMYYCARVDGYRGYNMDYWGQGTSVTVSS
VL: ENVLTQSPAIMSATPGEKVTMTCSASSSVSYMHWYQQKSSTSPKLWIYDTSKLASGVPGRFSGSGSGNSYTLTISSMEAEDVATYYCFQGSGYPLTFGAGTKLEIKR
notes: also called humanized 3rd MC41
On to B3, for which, in assay [2], the binding result was “no binding”.

B4: chimeric MC41 (chMC41) (antibody, V domains shown)
VH: B3 VH with T17S, L20I, I37V, I48L
VL: B3 VL with T14S, T71S, I105L
notes: Intact chimeric IgG of MC41
Consider B4, for which the binding result in assay [2] was “no binding”.

B5: 2nd humanized MC41 IgG (antibody, V domains shown)
VH: B3 VH with S114L
VL: B3 VL with M32L
notes: also called hMC41; humanized 2nd MC41
With B5, the binding result in assay [2] is “no binding”.
